Values of other authors as cited in PMC3924328, “Structure of the S100A4/myosin-IIA complex” (BMC Structural Biology, 2013).

Target: myosin-IIA 1904-1927 (Homo sapiens) (UniProt P35579)
Test: fluorescence anisotropy

myosin-IIA 1904-1927 (Homo sapiens), sequence (P35579 1904-1927): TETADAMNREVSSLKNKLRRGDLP
S100A4, sequence (P26447 2-101): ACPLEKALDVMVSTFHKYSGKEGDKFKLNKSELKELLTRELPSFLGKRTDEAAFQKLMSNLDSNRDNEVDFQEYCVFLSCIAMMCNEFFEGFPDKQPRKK

Substance: S100A4 (from UniProt P26447)
- Kd: 260 nM
